Experimental data: patent US20080025989A1 (Seagen, published 2008)

Columns and labels:
human CD70 [1] = biological target: T1, human CD70 (human, UniProt P32970 1-193); test: cell-based or functional assay
T1 sequence (looked up): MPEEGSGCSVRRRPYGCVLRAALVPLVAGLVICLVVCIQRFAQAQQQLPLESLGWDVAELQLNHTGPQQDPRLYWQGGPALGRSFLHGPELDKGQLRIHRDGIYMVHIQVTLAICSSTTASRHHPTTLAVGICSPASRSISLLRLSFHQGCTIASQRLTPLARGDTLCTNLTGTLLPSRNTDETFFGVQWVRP

human CD70 [2] = biological target: T1, human CD70; test: flow cytometry on allo-activated T cells after 5 days of MLR
Description: In the second system, an MLR was set up between PBMC and an irradiated allogeneic stimulator CESS. Allogeneic activation of peripheral blood T cells was achieved by conventional mixed lymphoycte reactions (MLR). MLR were initiated by mixing PBMCs and irradiated allogeneic Epstein-Barr virus (EBV)-transformed B lymphoblastoid CESS cells (ATCC, Manassas, Va.) at a ratio of one T cell to ten irradiated CESS cells. T cell density was adjusted to 0.25×10⁶ T cells/ml of RPMI-1640 supplemented with 10% FBS and 2 mM L-glutamine. Rapid proliferation and expansion of alloreactive T cells was observed after approximately 96 hours of culture. After 5 days of stimulation, cells were assessed for CD70 expression using the anti-CD70 mAb 1F6 by flow cytometry. […] In parallel cultures in 96-well plates, graded doses of either 1F6-vcMMAE or 1F6-vcAFP were included in the cultures at initiation. DNA synthesis was assayed during the last 16 hours of the 5-day culture by a pulse of ³H-TdR.

human CD70 [3] = biological target: T1, human CD70; test: cell-based or functional assay; remark: listed apart in the source
human CD70 [4] = biological target: T1, human CD70; test: cell-based or functional assay; remark: listed apart in the source
human CD70 [5] = biological target: T1, human CD70; test: cell-based or functional assay; remark: listed apart in the source
human CD70 [6] = biological target: T1, human CD70; test: immunohistochemistry on frozen RCC tumor sections, 2 µg/ml
Description: Immunohistochemistry was used to determine if over-expression of CD70 transcript in RCC was paralleled by CD70 protein expression. Frozen RCC tissue sections and normal adjacent tissue sections from two patients independent of those used in CD70 transcript analysis (FIGS. 6 and 7) were fixed in acetone at −20° C. for 10 minutes. After rehydration in PBS, sections were blocked with PBS containing 5% normal goat serum and Avidin D for 30 minutes at room temperature, and washed in PBS. Sections were incubated with the anti-CD70 mAb 2F2 or non-binding IgG at 2 μg/ml in PBS containing 5% normal goat serum with biotin for 60 minutes at room temperature. After washes with PBS, biotinylated anti-mouse IgG (VECTASTAIN ABC Kit, Vector Laboratories, Burlingame, Calif.) at a 1:250 dilution in PBS containing 5% normal goat serum was used to detect bound primary antibody by incubating for 30 minutes at room temperature. Excess biotinylated anti-mouse IgG was removed by PBS washes. Sections were quenched with 1% H₂O₂ in PBS for 30 minutes at room temperature, washed, and then incubated with the VECTASTAIN ABC complex made up according to the manufacturer's instructions. After PBS washes, sections were incubated for 30 minutes at room temperature with the DAB solution (VECTASTAIN ABC Kit) made up according to the manufacturer's instructions for color development. […]

B1: 1F6-vcAFP (antibody, V domains shown)
VH: QIQLVQSGPEVKKPGETVKISCKASGYTFTNYGMNWVKQAPGKGLKWMGWINTYTGEPTYADAFKGRFAFSLETSASTAYLQINNLKNEDTATYFCARDYGDYGMDYWGQGTSVTVSS
VL: DIVLTQSPASLAVSLGQRATISCRASKSVSTSGYSFMHWYQQKPGQPPKLLIYLASNLESGVPARFSGSGSGTDFTLNIHPVEEEDAATYYCQHSREVPWTFGGGTKLEIKR
modifications: maleimidocaproyl-val-cit-AFP on cysteine thiols of the DTT-reduced antibody (positions not stated)
Human CD70 [1]
  IC50, cytotoxicity (alamarBlue) on CD70+ RCC lines: < 0.02 µg/mL
  IC50, proliferation of activated CD70-expressing T cell clones C2A, 40D8 and 4.01.1: < 0.05 µg/mL

B2: 1F6-vcMMAF (antibody, V domains shown)
VH: QIQLVQSGPEVKKPGETVKISCKASGYTFTNYGMNWVKQAPGKGLKWMGWINTYTGEPTYADAFKGRFAFSLETSASTAYLQINNLKNEDTATYFCARDYGDYGMDYWGQGTSVTVSS
VL: DIVLTQSPASLAVSLGQRATISCRASKSVSTSGYSFMHWYQQKPGQPPKLLIYLASNLESGVPARFSGSGSGTDFTLNIHPVEEEDAATYYCQHSREVPWTFGGGTKLEIKR
modifications: MC-Val-Cit-PAB-MMAF on cysteine thiols of the DTT-reduced antibody (positions not stated)
Human CD70 [1]
  IC50, cytotoxicity (alamarBlue) on CD70+ RCC lines: < 0.03 µg/mL
  IC50, proliferation inhibition of all CD70+ RCC lines tested: < 0.03 µg/mL

B3: anti-human CD70 monoclonal antibody 1F6 (antibody, mouse IgG1, V domains shown)
VH: QIQLVQSGPEVKKPGETVKISCKASGYTFTNYGMNWVKQAPGKGLKWMGWINTYTGEPTYADAFKGRFAFSLETSASTAYLQINNLKNEDTATYFCARDYGDYGMDYWGQGTSVTVSS
VL: DIVLTQSPASLAVSLGQRATISCRASKSVSTSGYSFMHWYQQKPGQPPKLLIYLASNLESGVPARFSGSGSGTDFTLNIHPVEEEDAATYYCQHSREVPWTFGGGTKLEIKR
notes: Murine hybridoma mAb from the Netherlands Red Cross Blood Transfusion Service; they were cloned with mouse IgG1 and kappa gene-specific primers; Used AlexaFluor488-conjugated for flow cytometry where necessary; also called mAb 1F6; AF-conjugated 1F6
Human CD70 [2]
  binding result: binds

B4: chimeric 1F6 (c1F6)-mcMMAF4 (antibody, V domains shown)
VH: QIQLVQSGPEVKKPGETVKISCKASGYTFTNYGMNWVKQAPGKGLKWMGWINTYTGEPTYADAFKGRFAFSLETSASTAYLQINNLKNEDTATYFCARDYGDYGMDYWGQGTSVTVSS
VL: DIVLTQSPASLAVSLGQRATISCRASKSVSTSGYSFMHWYQQKPGQPPKLLIYLASNLESGVPARFSGSGSGTDFTLNIHPVEEEDAATYYCQHSREVPWTFGGGTKLEIKR
modifications: maleimidocaproyl-MMAF drug-linker, average of four per antibody (positions not stated)
Human CD70 [3]
  IC50 (ng/mL), cytotoxicity on Hs445 cells: 310 ng/mL
  IC50 (ng/mL), cytotoxicity on KMH2 cells: 5.2 ng/mL
  IC50 (ng/mL), cytotoxicity on L428 cells: 35 ng/mL
  IC50 (ng/mL), cytotoxicity on RPMI-6666 cells: 230 ng/mL
  IC50 (ng/mL), cytotoxicity on SUP-HD-1 cells: 53 ng/mL
Human CD70 [4]
  IC50 (ng/mL), cytotoxicity on AMO-1 cells: 38 ng/mL
  IC50 (ng/mL), cytotoxicity on JJN-3 cells: 61 ng/mL
  IC50 (ng/mL), cytotoxicity on L363 cells: 210 ng/mL
  IC50 (ng/mL), cytotoxicity on LB cells: 500 ng/mL
  IC50 (ng/mL), cytotoxicity on LP-1 cells: 155 ng/mL
  IC50 (ng/mL), cytotoxicity on MM.1R cells: 20 ng/mL
  IC50 (ng/mL), cytotoxicity on MM.1S cells: 22 ng/mL
  IC50 (ng/mL), cytotoxicity on MOLP-8 cells: 33 ng/mL
  IC50 (ng/mL), cytotoxicity on U266 cells: 1.7 ng/mL
Human CD70 [5]
  IC50 (ng/mL), cytotoxicity on DBTRG-05MG cells: 20 ng/mL
  IC50 (ng/mL), cytotoxicity on GMS-10 cells: 110 ng/mL
  IC50 (ng/mL), cytotoxicity on SNB-19 cells: 27 ng/mL
  IC50 (ng/mL), cytotoxicity on U251 cells: 15 ng/mL
  IC50 (ng/mL), cytotoxicity on U373MG cells: 35 ng/mL

B5: chimeric 1F6(c1F6)-vcMMAF4 (antibody, V domains shown)
VH: QIQLVQSGPEVKKPGETVKISCKASGYTFTNYGMNWVKQAPGKGLKWMGWINTYTGEPTYADAFKGRFAFSLETSASTAYLQINNLKNEDTATYFCARDYGDYGMDYWGQGTSVTVSS
VL: DIVLTQSPASLAVSLGQRATISCRASKSVSTSGYSFMHWYQQKPGQPPKLLIYLASNLESGVPARFSGSGSGTDFTLNIHPVEEEDAATYYCQHSREVPWTFGGGTKLEIKR
modifications: val-cit-MMAF drug-linker, average of four per antibody (positions not stated)
Human CD70 [3]
  IC50 (ng/mL), cytotoxicity on Hs445 cells: 7.3 ng/mL
  IC50 (ng/mL), cytotoxicity on KMH2 cells: 0.41 ng/mL
  IC50 (ng/mL), cytotoxicity on L428 cells: 1.4 ng/mL
  IC50 (ng/mL), cytotoxicity on RPMI-6666 cells: 42 ng/mL
  IC50 (ng/mL), cytotoxicity on SUP-HD-1 cells: 6.3 ng/mL
Human CD70 [4]
  IC50 (ng/mL), cytotoxicity on AMO-1 cells: 16 ng/mL
  IC50 (ng/mL), cytotoxicity on JJN-3 cells: 46 ng/mL
  IC50 (ng/mL), cytotoxicity on L363 cells: 78 ng/mL
  IC50 (ng/mL), cytotoxicity on LB cells: 80 ng/mL
  IC50 (ng/mL), cytotoxicity on LP-1 cells: 160 ng/mL
  IC50 (ng/mL), cytotoxicity on MM.1R cells: 13 ng/mL
  IC50 (ng/mL), cytotoxicity on MM.1S cells: 20 ng/mL
  IC50 (ng/mL), cytotoxicity on MOLP-8 cells: 73 ng/mL
  IC50 (ng/mL), cytotoxicity on U266 cells: 1.2 ng/mL
Human CD70 [5]
  IC50 (ng/mL), cytotoxicity on DBTRG-05MG cells: 2.3 ng/mL
  IC50 (ng/mL), cytotoxicity on GMS-10 cells: 27 ng/mL
  IC50 (ng/mL), cytotoxicity on SNB-19 cells: 12 ng/mL
  IC50 (ng/mL), cytotoxicity on U251 cells: 5.3 ng/mL
  IC50 (ng/mL), cytotoxicity on U373MG cells: 16 ng/mL

B6: 1F6-vcMMAE (antibody, V domains shown)
VH: QIQLVQSGPEVKKPGETVKISCKASGYTFTNYGMNWVKQAPGKGLKWMGWINTYTGEPTYADAFKGRFAFSLETSASTAYLQINNLKNEDTATYFCARDYGDYGMDYWGQGTSVTVSS
VL: DIVLTQSPASLAVSLGQRATISCRASKSVSTSGYSFMHWYQQKPGQPPKLLIYLASNLESGVPARFSGSGSGTDFTLNIHPVEEEDAATYYCQHSREVPWTFGGGTKLEIKR
modifications: maleimidocaproyl-val-cit-PAB-MMAE on cysteine thiols of the DTT-reduced antibody (positions not stated)
Human CD70 [1]
  IC50, proliferation of Caki-1 cells: < 0.02 µg/mL
  IC50, proliferation of Caki-2 cells: < 0.02 µg/mL

B7: anti-human CD70 monoclonal antibody 2F2 (antibody, mouse IgG1, V domains shown)
VH: QVQLQQSGTELMTPGASVTMSCKTSGYTFSTYWIEWVKQRPGHGLEWIGEILGPSGYTDYNEKFKAKATFTADTSSNTAYMQLSSLASEDSAVYYCARWDRLYAMDYWGGGTSVTVSS
VL: DIVLTQSPASLTVSLGQKTTISCRASKSVSTSGYSFMHWYQLKPGQSPKLLIYLASDLPSGVPARFSGSGSGTDFTLKIHPVEEEDAATYYCQHSREIPYTFGGGTKLEITR
notes: Murine hybridoma mAb; they were cloned with mouse IgG1 and kappa gene-specific primers; also called mAb 2F2
Human CD70 [6]
  binding result: binds
